The nature of this data set: soluble fraction after stress (log2 fold change); higher = more stays soluble; pooled small domains, quantitative proteomics. Conditions: stress: pH 4. The method in brief: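 Pooled custom libraries of small protein domains were subjected to pH 4 and measured by high-throughput quantitative proteomics. The log2 fold change in soluble amount per domain is reported, higher values meaning more remained soluble. This is used as a measure of aggregation propensity.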
Take “HMNMAEETLDTAAKILKAAEEEFMEKGYGNAKMMSIAARAGVSHSMLHYYYRSKGKLFQMIFDEKA”: the “soluble fraction (log2)” value is -1.06.
As to “HMNMAEQGISLDSEAGKARFVSQALPLLKQLPDGVFKQRMLNQLADRVEVTADFIAQQLAQLKAA”, the “soluble fraction (log2)” value is -0.266.
With “HMNMAVELEDGTQIFVFSEDGEFAGKRAVIADEEGRPTEENAPAGTHTLRDGRSIVVGEGGVIESVVET” the figure was -0.708; with “HMNMEYQKAINHIVQMVKDGQLIVGSKIPSERDLSESLGIGRNSTREAISILRGMGLVESRHGSGNYIAKD”, 0.22.
With “HMNMGEKIRSLIGQFGVTSEDLKNLSVANLLIRMNQEAGDSKTKGILASLLETVNKAGVGNLTPDALGIK” the figure was 0.064; with “HMNMLGEQVRNIRKSRGFTLKALAEQTGLSIGYISQIERNLTDPSLSTLRKISAALDVPTYLFMG”, 0.0605.
On to “HMNMLGSNIKYLRNRHKLSQQELSEKLGVPRSSLSDYERGHTQVGLDSLIKLADIFDVKIDDLLRSNLSHR”, for which the “soluble fraction (log2)” value is -0.261.
Regarding “HMNMPHEIDANFISSLGRLIDNHGKNYGDFQIFREMFLDYFPRFDELSSNNKEKINRRLYKFFETLFG”, the “soluble fraction (log2)” value is -1.44.
In the case of “HMNMVEESVKKSSQWAVFEPNTISTWVKIQAMIENYLYQKWKEGALAGAKPEHAFFVKVGLGETM”, the “soluble fraction (log2)” value is 0.0622.
Regarding “HMNNEISINGNKIYFNKNISKVFIYDISGKLIKHKNNFNNNFIDLSEFNSAFYIIKALDINENYTTKKIFL”, the “soluble fraction (log2)” value was -0.597.
“HMNNFTPEHLEKDIEGSLFFRRLKETAREEPGSLTVAQKDFIQMWHDQADGVYTLRQVFVQTAFDHVRSL”: the “soluble fraction (log2)” value worked out at 0.22.
Regarding “HMNNFTQSALDTIDGIGKRRKKLLLNHFGSVKLIENASIEDIKKIDGISDLVANKIYNFFNKN”, the “soluble fraction (log2)” value is -0.173.
“HMNNGAEIGAEIRSLRKARGLTLEDLAAKIGRSVGYISQVERGISPLTIPNLKAIAEVLGVGINWFFRGEA”: the “soluble fraction (log2)” value stood at 0.228.
With “HMNNILNYTIAELMEILKIDDLETENVINSSNNLINKSINENNFPLAEFYEDVKNNLIEFIETFDS”, the “soluble fraction (log2)” value was -1.08.
The same measure for “HMNNLELSEEEKSVLTIIEKEGLIELDKLKTKLELSNKKWDKTLKFLTKNKLAKVVKNDNGLFVEL”: 0.0993; for “HMNNLLEDIKARLMAQAEAGGHIDTETELAEHFGVTRYRIRKELDLLSQMGLLRRQPKNGIEVLTV”: 0.22.
On to “HMNNLNDIIEIIRIYAKNYARNNPSWNHSELINRIRDKALGEAEDYNIRLSEEDLALITELSLRGL”, for which the “soluble fraction (log2)” value was -1.24.
On to “HMNNMVNTLLKLLAEQDVLRGIVRRFTPSSVFVFLQNEEVEVELPLQGRSLAPGQLVELTQEGASVALKRL”, for which the “soluble fraction (log2)” value is -0.679.
The same measure for “HMNNPLLDKVYQLMKQNNITEEEIVRAVAMKGYFPDDMKLGDYPDDFIDGVLIGAWDQIKQFIINNISPFK”: -0.359; for “HMNNSDIDITVGKNSISINNPNRTNIIIYSSNGMLIDSSKNASYKRNLPSGIYIVKSGSSTHKVIV”: at least 0.43.
With “HMNNTIKFFVSQDDDSTRLDVFLSKKIENLTRSNIKKFINLNNVKINKATINSPSKKVKLYDEIEIKFSS” the figure was -1.19; with “HMNNTIKFSVDSQNSGKRLDIFLTENIKNYTRSFLKKLIENRQVKLNNNFIISPSERVKFKDQININILQ”, 0.199.
Turning to “HMNNVDIMGRMVYDDQHREVINFGKYKGVLVTEVLKKDPGYFSWIQQGDFPSDMKRIMMAIKLRM”, the “soluble fraction (log2)” value is -0.72.
With “HMNNVDQLIEQYKTLPGGLLPLLHAIKHALGYIPESTVGSIAKGFNLSRAEVHGVISFYHDFNTQP” the figure was -0.365; with “HMNPAYTDSRMKTFLEELPVMKASLSQKHVTRFLVWQEYIGRHPDGYGKSQFFYHLKQNLVAAKG”, 0.0452.
As to “HMNPDTERIREFVAVSLKNRKVATSGEIQNMIVKQFKNFKLKSHGYSNMKSFLSSIDKIQLNSNGKYSLK”, the “soluble fraction (log2)” value turned out to be 0.0764.
With “HMNPEDDLLKAIIMKYFSNAQVQVDKNVIEYLLKRVDRDYQNLYNILEKINILSLQRKSKITTHLIRDIM” the figure was -0.624; with “HMNPFLELTEREMDVLRLIAIGRNNQEIASELVISEKTVKTHITNIFSKLHFKDRTQAAAYAWQSGIVR”, -1.07.
With “HMNPHGVAIIDVRKGKASTLRSLATSVRSLGEWDQLKIPIFNLESLTSLVLWHGLDAIVKEPESLQSNLIL” the figure was -0.222; with “HMNPHIQFWSLLRRQPDYNSAYKDELKAMFVWQWSGEKTESLNEFYKTDPYRYKSMLMDMRNRAL”, -0.354.
Take “HMNPIDAHVGARVRLRRMLIGMSQEKLGELLGVTFQQIQKYEKGANRIGASRLYEVSRVLDVPVQYFFDDM”: the “soluble fraction (log2)” value was -0.436.
In the case of “HMNPLDGTSVHPESYEAAEKLLKKQGFSLEDISGGKLTGLSLTIKDYARLAKELEIGEITLRDIVKELEK”, the “soluble fraction (log2)” value is -0.747.
With “HMNPLHYKAAHWVREGLFDDLKSFVELETRINSIFEEKDRGDVFEIFIEGYRSFSKWRALVLRLA” the figure was -0.44; with “HMNPNEVQIPDLVNKTEEEAEQILKDLKLKLVVKSEEYDENIEKGKIISQDPTYKENYKIKEHSEISVIIS”, 0.0816; with “HMNPNPFVNLSPRELEVLNLLFKGYGVLEISNELNIGQTTASTFKSRILKKTSTHSVVELIKLAEQYGFIP”, -0.847.
The same measure for “HMNPNPYIVLGVDKSMPFGEIKKVYQRKRREFHPDSLVAKGLPDELLQKAQDKFIAIQEAYKSIEKNQV”: 0.0331; for “HMNPNSIDEKLKLLSNREKEVAILVLKKLSYFEISEQLNITIRTVKAHTKNIYEKFNVSNRLAFLLLFN”: -0.209.
The same measure for “HMNPSAFSEYSFELLQSALLKKKIDENLSNQTIARDAGVSEAFVQKVLTNNVKRPSVKNRVRMISYLGLD”: 0.00228.
Turning to “HMNPSFTMGTRIKEYIDAHYLEDLKLADIAEALHINLYYLSHTFKDLTGSSPMQYIIRRRIEE”, the “soluble fraction (log2)” value was -0.603.
The same measure for “HMNPSPYLRRHLSGDWGDLDEDDRRSNDAALASGEARLLSSYQVDPDLKLWIITEWDRSVTTLLLPSE”: at least 0.43; for “HMNPTLPYGFAKRHGVILLEAGEVAVVGLREGADPAALIETRRALGRPLRVEPLDQATFDRRLSQVYA”: -0.15; for “HMNPTSLTFRSNVKDGKVYVDGIFKGSSDLDFDLPKGRHSIRIEKDGYVPFAKTINLIKALVIDFNMEKA”: 0.123.
With “HMNPTTQIQYNLPKSEFVSIYIYDLIGNRVKSLINNYQDAGYKSVYWDAMNDLGQPVSAGMYIY”, the “soluble fraction (log2)” value was -0.0442.
With “HMNQKKFIQADYEDRLFDHLAFEVKDMEKIISMMRREKFTITDEPFRLSPTGSLIAFVEDPDRTLIELIER” the figure was -0.522; with “HMNQNAMIGAHIRNLRLAKKLTLKQLSDESGLSVGFLSQLERGMSSIAIDTLARLAHILGADLSSFF”, -0.214.
With “HMNQRQLQIKQMLDVAQEVFLKQLKTVFPDVSEMTIRRDLILLEDMGYAVRTHGGAVSINRF” the figure was -1.2.
Turning to “HMNQRTATVTASQLNVRSGPSTAYSIVHVLRQGETVEVIGESDGWYQIRLKDGRVGWSSGQYLNLN”, the “soluble fraction (log2)” value is -0.481.
As for “HMNQSAVMAERMKQTKNRILQTAKEIFLEQGYKRTTIRQIVERSGITSGSIYNIFSSKEEIFSALVDDL”, the “soluble fraction (log2)” value is -1.77.
The same measure for “HMNQSYQLWIKDDELGPTPRSVGVLNEHFEVDPAALTNYDAELLRRATFGISLEPRGGSPTGQP”: -0.688; for “HMNQTPQISYSQFIADVRSGQIKDVNIDSDNRTIVGHKFSGEEFTTFSPGDNKLVDELLNYNVEIKTSP”: -0.125.

For the origin of these results see the domain aggregation screens of Martell et al. (2025).
